From paper PMC6212840
Like-named read-outs stand apart in the source and are kept apart here.

Columns and labels:
[1] = biological target: TbMP18-FL (aa 19-164) (Trypanosoma brucei)
[2] = biological target: TbMP18-FL (aa 19-164) (Trypanosoma brucei); assay: SEC

Row | Molecule | stoichiometry N [1] | stoichiometry N [2]
1 | TbMP24-FL (aa 47-246) (natural protein) | 1.1 | 1.5
2 | TbMP18-FL (aa 19-164) (natural protein) | – | 4
3 | TbMP63-OB (aa 472-587) (domain or fragment) SAIGASWAETELIPHAQCVSNITIVGRVLDVSQASENVSHVTVFVEGERSGEEETLTLCCFGEVSQKIRGTLKRNATIFASGTLRLHPVYEASNNKYYVSPVVHVSMPTGTLAVIT | 0.67 | –
